Tested on: Ovalbumin-specific OTII T cells
Experiment: Adoptive transfer of ovalbumin-specific OTII T cells, Foxp3 expression (Example 5)
Format: in vivo
Conditions: mice with adoptively transferred OTII T cells; starting from ~3%
Experimental: However, expansion of antigen-specific Treg can be more desirable than expansion of total Treg. The ability of ImmTOR plus antigen combined with IL-2 mutein to induce and/or expand antigen-specific Treg was evaluated. Ovalbumin-specific OTII T cells were adoptively transferred into mice prior to treatment with ovalbumin and ImmTOR and/or IL-2 mutein.

B1: ovalbumin (protein, UniProt P01012 2-386, looked up)
Ovalbumin: GSIGAASMEFCFDVFKELKVHHANENIFYCPIAIMSALAMVYLGAKDSTRTQINKVVRFDKLPGFGDSIEAQCGTSVNVHSSLRDILNQITKPNDVYSFSLASRLYAEERYPILPEYLQCVKELYRGGLEPINFQTAADQARELINSWVESQTNGIIRNVLQPSSVDSQTAMVLVNAIVFKGLWEKAFKDEDTQAMPFRVTEQESKPVQMMYQIGLFRVASMASEKMKILELPFASGTMSMLVLLPDEVSGLEQLESIINFEKLTEWTSSNVMEERKIKVYLPRMKMEEKYNLTSVLMAMGITDVFSSSANLSGISSAESLKISQAVHAAHAEINEAGREVVGSAEAGVDAASVSEEFRADHPFLFCIKHIATNAVLFFGRCVSP
- percentage of Foxp3+ OTII cells: ~6%
